Here are results for ten molecules from patent publication US10294487B2, “Methods and compositions involving ALS variants with native substrate preference” (E I DU PONT DE NEMOURS AND COMPANY, priority 2012, dated 2019).

The subject of data set [1] is ALS. The note with it: cited from earlier work.
The test system of data set [2] is ALS. The note with it: pyruvate reaction; cited from earlier work.
The test system of data set [3] is G. max ALS1 protein. Description: Colorimetric ALS kinetic assay (Km, kcat) with pyruvate as substrate. It counts as biochemical, Glycine max. Put shortly:
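Recombinant soybean ALS variants, mature N-terminus from S48, His-MBP tag cleaved off; 0.8 ug enzyme per well in 25 mM potassium phosphate, 15 mM MgCl2, 0.7 mM TPP, 28 uM FAD, 0.2 mg/ml BSA, 0-100 mM pyruvate. Km and Vmax from hyperbolic fit; kcat from Vmax and protein concentration.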

The subject of data set [4] is G. max ALS1 protein. Description: Substrate specificity ratio (Rf), pyruvate versus 2-ketobutyrate, LC-MS of reduced products. In kind it is biochemical, Glycine max. Conditions: ratio of [pyruvate] to [2-ketobutyrate] giving equal rates of acetolactate and acetohydroxybutyrate formation; 25 mM pyruvate. The essentials:
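Pyruvate was held at 25 mM while 2-ketobutyrate was varied. Reactions were quenched with sodium borohydride, and the reduced acetolactate and acetohydroxybutyrate were separated on C18 with a methanol gradient and quantified by MS integration. Rf is the [pyruvate]/[2-ketobutyrate] ratio that gives equal formation rates of both products.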

Where a chain is given by its changes, count along the chain named. Numbers in names are those of the source.

B1: F590L: Site-directed mutation in S. cerevisiae ALS; position F578, 559 (protein, UniProt P07342 91-687, looked up, variant F590L)
Acetolactate synthase …: GLTGGQIFNEMMSRQNVDTVFGYPGGAILPVYDAIHNSDKFNFVLPKHEQGAGHMAEGYARASGKPGVVLVTSGPGATNVVTPMADAFADGIPMVVFTGQVPTSAIGTDAFQEADVVGISRSCTKWNVMVKSVEELPLRINEAFEIATSGRPGPVLVDLPKDVTAAILRNPIPTKTTLPSNALNQLTSRAQDEFVMQSINKAADLINLAKKPVLYVGAGILNHADGPRLLKELSDRAQIPVTTTLQGLGSFDQEDPKSLDMLGMHGCATANLAVQNADLIIAVGARFDDRVTGNISKFAPEARRAAAEGRGGIIHFEVSPKNINKVVQTQIAVEGDATTNLGKMMSKIFPVKERSEWFAQINKWKKEYPYAYMEETPGSKIKPQTVIKKLSKVANDTGRHVIVTTGVGQHQMWAAQHWTWRNPHTFITSGGLGTMGYGLPAAIGAQVAKPESLVIDIDGDASFNMTLTELSSAVQAGTPVKILILNNEEQGMVTQWQSLLYEHRYSHTHQLNPDFIKLAEAMGLKGLRVKKQEELDAKLKEFVSTKGPVLLEVEVDKKVPVLPMVAGGSGLDEFINFDPEVERQQTELRHKRTGGKH
For the molecule B1, in the data set with ALS [1] (imidazolinone(s)), the “Resistance pattern, I50 fold increase: IM” value is “IM, 60 fold”. The “Resistance pattern, I50 fold increase: SU” value in the data set on ALS [1] (sulfonylurea(s)) is listed as “SUs, 30-300 fold”. Besides, in the data set with ALS [2], the “Kinetic parameters: Km” value was “Km, 30 % wt” and the “Kinetic parameters: kcat” value is reported as “kcat, 200 % wt”.

B2: P197S: Chemical mutagenesis of A. thaliana plants; position P197, 178 (protein, UniProt P17597 56-670, looked up, variant P197S)
Acetolactate synthase, …: SSSPSSISAVLNTTTNVTTTPSPTKPTKPETFISRFAPDQPRKGADILVEALERQGVETVFAYPGGASMEIHQALTRSSSIRNVLPRHEQGGVFAAEGYARSSGKPGICIATSGPGATNLVSGLADALLDSVPLVAITGQVSRRMIGTDAFQETPIVEVTRSITKHNYLVMDVEDIPRIIEEAFFLATSGRPGPVLVDVPKDIQQQLAIPNWEQAMRLPGYMSRMPKPPEDSHLEQIVRLISESKKPVLYVGGGCLNSSDELGRFVELTGIPVASTLMGLGSYPCDDELSLHMLGMHGTVYANYAVEHSDLLLAFGVRFDDRVTGKLEAFASRAKIVHIDIDSAEIGKNKTPHVSVCGDVKLALQGMNKVLENRAEELKLDFGVWRNELNVQKQKFPLSFKTFGEAIPPQYAIKVLDELTDGKAIISTGVGQHQMWAAQFYNYKKPRQWLSSGGLGAMGFGLPAAIGASVANPDAIVVDIDGDGSFIMNVQELATIRVENLPVKVLLLNNQHLGMVMQWEDRFYKANRAHTFLGDPAQEDEIFPNMLLFAAACGIPAARVTKKADLREAIQTMLDTPGPYLLDVICPHQEHVLPMIPSGGTFNDVITEGDGRIKY
Take B2: the “Resistance pattern, I50 fold increase: IP” value in the data set with ALS [1] (IP (abbreviation not defined)) is listed as “IP, 2 fold”. Besides, the “Resistance pattern, I50 fold increase: CS” value with ALS [1] (chlorsulfuron) was “CS, 1000 fold”.

B3: R199E: Site-directed mutation in A. thaliana ALS; position R199, 180 (protein, UniProt P17597 56-670, looked up, variant R199E)
Acetolactate synthase, …: B2 Acetolactate synthase, … with S142P, R144E
For the molecule B3, the “Resistance pattern, I50 fold increase: IEt” value in the data set with ALS [1] (imazethapyr) is “IEt, 50 fold”. In addition, the “Resistance pattern, I50 fold increase: SM” value with ALS [1] (sulfometuron methyl) is given as “SM, 2 fold”.

B4: GM-ALS_K237F: Glycine Max ALS1 variant with a K→F mutation at position 237 (protein)
chain: MAATASRTTRFSSSSSHPTFPKRITRSTLPLSHQTLTKPNHALKIKCSISKPPTAAPFTKEAPTTEPFVSRFASGEPRKGADILVEALERQGVTTVFAYPGGASMEIHQALTRSAAIRNVLPRHEQGGVFAAEGYARSSGLPGVCIATSGPGATNLVSGLADALMDSVPVVAITGQVPRRMIGTDAFQETPIVEVSRSITKHNYLILDVDDIPRVVAEAFFVATSGRPGPVLIDIPFDVQQQLAVPNWDEPVNLPGYLARLPRPPAEAQLEHIVRLIMEAQKPVLYVGGGSLNSSAELRRFVELTGIPVASTLMGLGTFPIGDEYSLQMLGMHGTVYANYAVDNSDLLLAFGVRFDDRVTGKLEAFASRAKIVHIDIDSAEIGKNKQAHVSVCADLKLALKGINMILEEKGVEGKFDLGGWREEINVQKHKFPLGYKTFQDAISPQHAIEVLDELTNGDAIVSTGVGQHQMWAAQFYKYKRPRQWLTSGGLGAMGFGLPAAIGAAVANPGAVVVDIDGDGSFIMNVQELATIRVENLPVKILLLNNQHLGMVVQWEDRFYKSNRAHTYLGDPSSESEIFPNMLKFADACGIPAARVTKKEELRAAIQRMLDTPGPYLLDVIVPHQEHVLPMIPSNGSFKDVITEGDGRTRY
modifications: ALS1 variant K237F
For the molecule B4, in the data set with G. max ALS1 protein [3], the Km (commonly the concentration of substrate that gives half-maximal velocity) was found to be 27 mM and the kcat (in general, the maximal rate divided by the concentration of active sites) was 2.17 s⁻¹. In addition, the “Substrate specificity ratio (Rf)” value in the data set on G. max ALS1 protein [4] was 100.0.

B5: GM-ALS_F559D: Glycine Max ALS1 variant with a F→D mutation at position 559 (protein)
chain: B4 chain with F237K, F559D
modifications: ALS1 variant F559D
Turning to B5, in the data set on G. max ALS1 protein [3], the Km is 20 mM and the kcat amounted to 0.417 s⁻¹. Also, in the data set on G. max ALS1 protein [4], the “Substrate specificity ratio (Rf)” value was found to be 96.0.

B6: GM-ALS_W555L: Glycine Max ALS1 variant with a W→L mutation at position 555 (protein)
chain: B4 chain with F237K, W555L
modifications: ALS1 variant W555L
On to B6, for which, in the data set with G. max ALS1 protein [3], the Km is 1.8 mM and the kcat came out at 1.08 s⁻¹. In addition, the “Substrate specificity ratio (Rf)” value with G. max ALS1 protein [4] is on record as 2.6.

B7: GM-ALS_D357E: Glycine Max ALS1 variant with a D→E mutation at position 357 (protein)
chain: B4 chain with F237K, D357E
modifications: ALS1 variant D357E
On to B7, for which, in the data set with G. max ALS1 protein [3], the Km turned out to be 3 mM and the catalytic constant (kcat) was found to be 2.8 s⁻¹. For the same molecule, the “Substrate specificity ratio (Rf)” value in the data set with G. max ALS1 protein [4] came out at 67.6.

B8: GM-ALS_K237Q: Glycine Max ALS1 variant with a K→Q mutation at position 237 (protein)
chain: B4 chain with F237Q
modifications: ALS1 variant K237Q
For B8, in the data set with G. max ALS1 protein [3], the Km came out at 20 mM and the kcat turned out to be 1.35 s⁻¹. Moreover, the “Substrate specificity ratio (Rf)” value in the data set with G. max ALS1 protein [4] is recorded as 100.0.

B9: GM-ALS_D357N: Glycine Max ALS1 variant with a D→N mutation at position 357 (protein)
chain: B4 chain with F237K, D357N
modifications: ALS1 variant D357N
B9: in the data set on G. max ALS1 protein [3], the Km was 6 mM and the kcat stood at 2.5 s⁻¹. Also, the “Substrate specificity ratio (Rf)” value in the data set with G. max ALS1 protein [4] amounted to 72.0.

B10: GM-ALS_F559L: Glycine Max ALS1 variant with a F→L mutation at position 559 (protein)
chain: B4 chain with F237K, F559L
modifications: F559L
Consider B10, for which, in the data set on G. max ALS1 protein [3], the Km stood at 6 mM and the kcat was found to be 1.78 s⁻¹. Besides, the “Substrate specificity ratio (Rf)” value in the data set with G. max ALS1 protein [4] is 62.5.
